From ChEMBL document CHEMBL2074389, “Isolation of a multispecific organic anion and cardiac glycoside transporter from rat brain” (Proc Natl Acad Sci U S A, 1997) come the findings set out here.

Holding throughout (type): functional, cell-based, Oocyte
Data set [1] deals with T1, Solute carrier organic anion transporter family member 1A4 (Rattus norvegicus, UniProt O35913).
T1 sequence (O35913 whole entry): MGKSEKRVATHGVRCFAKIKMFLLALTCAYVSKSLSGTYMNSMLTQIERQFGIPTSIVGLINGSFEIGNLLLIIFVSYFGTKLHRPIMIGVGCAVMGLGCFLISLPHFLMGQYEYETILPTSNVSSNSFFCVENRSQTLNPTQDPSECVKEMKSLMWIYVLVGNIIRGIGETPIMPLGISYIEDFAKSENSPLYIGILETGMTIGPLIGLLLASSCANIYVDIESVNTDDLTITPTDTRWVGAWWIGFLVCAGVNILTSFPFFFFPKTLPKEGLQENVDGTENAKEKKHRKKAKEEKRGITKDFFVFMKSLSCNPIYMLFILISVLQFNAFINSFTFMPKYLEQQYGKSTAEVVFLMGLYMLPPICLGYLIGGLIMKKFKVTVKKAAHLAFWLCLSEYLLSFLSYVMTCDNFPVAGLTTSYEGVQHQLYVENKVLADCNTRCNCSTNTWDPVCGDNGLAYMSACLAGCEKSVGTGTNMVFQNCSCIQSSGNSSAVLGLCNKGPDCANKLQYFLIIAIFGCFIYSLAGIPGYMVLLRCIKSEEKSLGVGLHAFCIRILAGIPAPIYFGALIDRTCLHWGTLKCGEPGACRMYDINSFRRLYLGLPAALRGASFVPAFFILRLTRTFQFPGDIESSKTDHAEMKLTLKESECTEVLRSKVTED
Put plainly: (§1) TP_TRANSPORTER: uptake in Xenopus laevis oocytes. The following applies: oocyte.

Data set [2] deals with T2, Solute carrier organic anion transporter family member 1A4 (SLCO1A4, OATP1A4) (Rattus norvegicus, UniProt O35913).
T2 sequence (O35913 whole entry): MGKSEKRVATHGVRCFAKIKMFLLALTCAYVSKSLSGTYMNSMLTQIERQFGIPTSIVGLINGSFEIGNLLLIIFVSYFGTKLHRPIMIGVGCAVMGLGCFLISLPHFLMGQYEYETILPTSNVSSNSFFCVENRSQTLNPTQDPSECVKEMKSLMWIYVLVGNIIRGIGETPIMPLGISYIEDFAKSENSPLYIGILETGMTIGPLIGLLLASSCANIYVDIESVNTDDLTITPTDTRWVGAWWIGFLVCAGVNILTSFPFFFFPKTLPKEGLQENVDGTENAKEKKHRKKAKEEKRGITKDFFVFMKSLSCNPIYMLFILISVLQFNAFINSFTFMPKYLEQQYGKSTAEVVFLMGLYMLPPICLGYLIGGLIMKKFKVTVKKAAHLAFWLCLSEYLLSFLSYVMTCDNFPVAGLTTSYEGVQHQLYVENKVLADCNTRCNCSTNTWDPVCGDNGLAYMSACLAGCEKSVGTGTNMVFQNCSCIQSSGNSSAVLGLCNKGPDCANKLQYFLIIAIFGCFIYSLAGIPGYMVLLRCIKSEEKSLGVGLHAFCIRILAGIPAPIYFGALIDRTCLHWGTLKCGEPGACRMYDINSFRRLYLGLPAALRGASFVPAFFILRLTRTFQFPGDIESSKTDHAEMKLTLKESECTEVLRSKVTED
The description is as §1. The following applies: Xenopus laevis oocytes expressing the transporter.

Substrate in data set [3]: C[C@]12CC[C@@H]3c4ccc(OS(=O)(=O)O)cc4CC[C@H]3[C@@H]1CCC2=O
Described as §1.

Substrate in data set [4]: C[C@H]1O[C@@H](O[C@H]2[C@@H](O)C[C@H](O[C@H]3[C@@H](O)C[C@H](O[C@H]4CC[C@@]5(C)[C@H](CC[C@@H]6[C@@H]5C[C@@H](O)[C@]5(C)[C@@H](C7=CC(=O)OC7)CC[C@]65O)C4)O[C@@H]3C)O[C@@H]2C)C[C@H](O)[C@@H]1O
Described as §1.

Substrate in data set [5]: C[C@]12CC[C@@H]3c4ccc(O)cc4CC[C@H]3[C@@H]1CC[C@@H]2O[C@@H]1O[C@H](C(=O)O)[C@@H](O)[C@H](O)[C@H]1O
The description is as §1.

Take `CN(Cc1cnc2nc(N)nc(N)c2n1)c1ccc(C(=O)N[C@@H](CCC(=O)O)C(=O)O)cc1` [METHOTREXATE]: the Activity result in data set [1] was “is not a substrate [-]”.
What is called Km is the concentration of substrate that gives half-maximal velocity. Consider `C[C@@H]1O[C@@H](O[C@H]2C[C@@H](O)[C@]3(CO)[C@H]4[C@H](O)C[C@]5(C)[C@@H](C6=CC(=O)OC6)CC[C@]5(O)[C@@H]4CC[C@]3(O)C2)[C@H](O)[C@H](O)[C@H]1O` [OUABAIN], for which, in data set [2], the Km was determined as 470 µM.

B1: Solute carrier organic anion transporter family member 1A4 (Rattus norvegicus) (protein)
chain: MGKSEKRVATHGVRCFAKIKMFLLALTCAYVSKSLSGTYMNSMLTQIERQFGIPTSIVGLINGSFEIGNLLLIIFVSYFGTKLHRPIMIGVGCAVMGLGCFLISLPHFLMGQYEYETILPTSNVSSNSFFCVENRSQTLNPTQDPSECVKEMKSLMWIYVLVGNIIRGIGETPIMPLGISYIEDFAKSENSPLYIGILETGMTIGPLIGLLLASSCANIYVDIESVNTDDLTITPTDTRWVGAWWIGFLVCAGVNILTSFPFFFFPKTLPKEGLQENVDGTENAKEKKHRKKAKEEKRGITKDFFVFMKSLSCNPIYMLFILISVLQFNAFINSFTFMPKYLEQQYGKSTAEVVFLMGLYMLPPICLGYLIGGLIMKKFKVTVKKAAHLAFWLCLSEYLLSFLSYVMTCDNFPVAGLTTSYEGVQHQLYVENKVLADCNTRCNCSTNTWDPVCGDNGLAYMSACLAGCEKSVGTGTNMVFQNCSCIQSSGNSSAVLGLCNKGPDCANKLQYFLIIAIFGCFIYSLAGIPGYMVLLRCIKSEEKSLGVGLHAFCIRILAGIPAPIYFGALIDRTCLHWGTLKCGEPGACRMYDINSFRRLYLGLPAALRGASFVPAFFILRLTRTFQFPGDIESSKTDHAEMKLTLKESECTEVLRSKVTED
In the case of B1, the values for the Km in data set [3], in data set [4] and in data set [5] were 11 µM, 0.24 µM and 3 µM, respectively.
